B1: HMGXB4 226-315: 90-aa human peptidome tile displayed on T7 phage (protein, UniProt Q9UGU5 226-315, looked up, fragment)
chain: KSARDEQGALLLGHELQSFLKTARKKHKSSSDAHSSPGPEGCGSDASQFAESHSANLDLSGLEPILVESDSSSGGELEAGELVIDDSYRE
modifications: displayed on T7 phage
B2: hoxa2 271-360: 90-aa human peptidome tile displayed on T7 phage (protein, UniProt O43364 271-360, looked up, fragment)
chain: SFPVSPLTSNEKNLKHFQHQSPTVPNCLSTMGQNCGAGLNNDSPEALEVPSLQDFSVFSTDSCLQLSDAVSPSLPGSLDSPVDISADSLD
modifications: displayed on T7 phage
B3: HUWE1 2251-2340: 90-aa human peptidome tile of HUWE1 displayed on T7 phage (protein, UniProt Q7Z6Z7 2251-2340, looked up, fragment)
chain: ETLSRIVNQPSSLFGSKSASSKNKSEQDAQGASQDSSSNQQDPGEPGEAEVQEEDHDVTQTEVADGDIMDGEAETDSVVIAGQPEVLSSQ
modifications: displayed on T7 phage
B4: BSN 631-720: 90-aa human peptidome tile displayed on T7 phage (protein, UniProt Q9UPA5 631-720, looked up, fragment)
chain: ATPKVKSGVRRAEPATPVVKAVPEAPKGGEAEDLVGKPYSQDASRSPQSLSDTGYSSDGISSSQSEITGVVQQEVEQLDSAGVTGPHPPS
modifications: displayed on T7 phage
B5: ZNF469 811-900: 90-aa human peptidome tile displayed on T7 phage (protein, UniProt Q96JG9 811-900, looked up, fragment)
chain: PLRTGFLPSLAATPFPLPASDLDMEDDAKLDSLITEALNGMEYQSDNPEIDSSFIDVFADEEPSGPRGPSSGHPLKSKAGVTPESKAPPP
modifications: displayed on T7 phage
B6: Hyls1 1-90: 90-aa human peptidome tile displayed on T7 phage (protein, UniProt Q96M11 1-90, looked up, fragment)
chain: MEELLPDGQIWANMDPEERMLAAATAFTHICAGQGEGDVRREAQSIQYDPYSKASVAPGKRPALPVQLQYPHVESNVPSETVSEASQRLR
modifications: displayed on T7 phage
B7: MAP3K14 496-585: 90-aa human peptidome tile displayed on T7 phage (protein, UniProt Q99558 496-585, looked up, fragment)
chain: LGQALEGLEYLHSRRILHGDVKADNVLLSSDGSHAALCDFGHAVCLQPDGLGKSLLTGDYIPGTETHMAPEVVLGRSCDAKVDVWSSCCM
modifications: displayed on T7 phage
B8: HUWE1 2341-2430: 90-aa human peptidome tile of HUWE1 displayed on T7 phage (protein, UniProt Q7Z6Z7 2341-2430, looked up, fragment)
chain: EMQVENELEDLIDELLERDGGSGNSTIIVSRSGEDESQEDVLMDEAPSNLSQASTLQANREDSMNILDPEDEEEHTQEEDSSGSNEDEDD
modifications: displayed on T7 phage
B9: Znf462 1-90: 90-aa human peptidome tile displayed on T7 phage (protein, UniProt Q96JM2 1-90, looked up, fragment)
chain: MEVLQCDGCDFRAPSYEDLKAHIQDVHTAFLQPTDVAEDNVNELRCGSVNASNQTEVEFSSIKDEFAIAEDLSGQNATSLGTGGYYGHSP
modifications: displayed on T7 phage
B10: TNS3 451-540: 90-aa human peptidome tile displayed on T7 phage (protein, UniProt Q68CZ2 451-540, looked up, fragment)
chain: YSGTRHVVPAQVHVNGDAALKDRETDILDDEMPHHDLHSVDSLGTLSSSEGPQSAHLGPFTCHKSSQNSLLSDGFGSNVGEDPQGTLVPD
modifications: displayed on T7 phage

The molecules below were run against T1, Caspase-1 (Homo sapiens, UniProt P29466) (assay: SEPARATE assay: human peptidome library digest with Caspase-1). Settings: top 20 enriched peptides, human library (90-aa tiles); normalized read counts digest vs mock digest.
T1 construct: purchased BioVision
T1 sequence (P29466 120-297 limits assumed): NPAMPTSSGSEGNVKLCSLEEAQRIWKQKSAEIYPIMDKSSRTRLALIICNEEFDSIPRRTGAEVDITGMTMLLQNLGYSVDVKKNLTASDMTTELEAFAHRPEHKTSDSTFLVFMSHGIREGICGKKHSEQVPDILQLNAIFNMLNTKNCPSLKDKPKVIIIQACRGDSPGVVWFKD
T1 sequence (P29466 317-404 limits assumed): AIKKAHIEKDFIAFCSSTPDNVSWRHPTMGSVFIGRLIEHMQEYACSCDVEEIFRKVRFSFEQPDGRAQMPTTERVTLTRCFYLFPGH
Format: biochemical
Description: Streptavidin-coupled magnetic beads (Dynabeads M-280 Streptavidin, ThermoFisher Scientific) were washed (TBS, pH 7.4, 0.01% NP40) and resuspended in binding buffer (TBS, pH 7.4, 0.001% NP40) containing 2E9 plaque forming units per 10 μl of bead slurry. End-over-end mixing at room temperature was performed for one hour. Phage-coated beads were washed three times with wash buffer and transferred into two protein LoBind Eppendorf tubes blocked with TBS, pH 7.4 containing 1% BSA.
Digestion occurred overnight at room temperature with end-over-end rotation. […] To remove any residual biotinylated phage that may have been nonspecifically released, the 150 μl supernatant of the quenched digest reaction is then incubated with a fresh 10 μl of slurry volume M280 streptavidin beads (pre-washed three times with wash buffer) in a LoBind Eppendorf tube blocked with TBS, pH 7.4 containing 1% BSA at room temperature for one hour with end-over-end rotation.
10 μl slurry volume of protein G magnetic dynabeads were washed in buffer (TBS, pH 7.4, 0.01% NP40) and then resuspended in 50 μl TBS, pH 7.4, 0.01% NP40 containing 4 μg of M2 FLAG antibody for thirty minutes at room temperature with end-over-end rotation. The 150 μl quenched digest reaction is added to the 10 μl FLAG-coated Protein G beads and incubated for 60 minutes at room temperature with end-over-end rotation to capture phage particles released at the protease digest step. Beads are rinsed once with 100 μl wash buffer and stored at −80° C. until PCR amplification.
Library PCR preparation, high-throughput DNA sequencing, and peptide read count data generation was performed as described previously.^44 Briefly, library peptide inserts are amplified by resuspending 10 μl of FLAG-coated Protein G beads in PCR1 master mix containing the T7-Pep2_PCR1_F forward primer ([…]) (SEQ ID NO:3) and a T7-SEPARATE vector specific reverse primer ([…]) (SEQ ID NO:4), which includes an adapter sequence for sample-specific barcoding and Illumina P7 adapter incorporation during a subsequent PCR2 reaction. The PCR2 amplicons are pooled and sequenced using an Illumina NextSeq instrument in standard output mode to obtain single-end 50 nucleotide reads. Dual indexed sample demultiplexing and clonal read count determination were performed using exact sequence matching. […] To calculate the normalization factor, 100 peptides were randomly selected from the mock digest conditions with a read count ranging between 10 and 40. The median read count value for these 100 peptides is calculated for each sample. The random peptide selection and median calculation is performed 20 times and the average of the 20 median values is calculated for each sample. Finally, the normalization factor is calculated by dividing the average median value for each sample by that for one of the mock digest conditions. Read counts are then converted to normalized read counts by dividing each sample's read count values by the normalization factor. Fold enrichments are calculated for each peptide by dividing their normalized read counts in the digest condition by the normalized read counts in the mock digest condition. The fold enrichments can be visualized in an MA plot by transforming the normalized read count data into a log ratio (M, on the y-axis) and a mean average (A, on the x-axis) between the digest and mock digest conditions.

Question: With B1 as the molecule, how does the Caspase1 fold change read?
Answer: Its Caspase1 fold change is 16.49 fold.

Question: B2 was tested. Which Caspase1 fold change did it give?
Answer: Its Caspase1 fold change is 17.06 fold.

Question: B3 was tested. Which Caspase1 fold change did it give?
Answer: Its Caspase1 fold change is 17.58 fold.

Question: Which Caspase1 fold change does the source give for B4 here?
Answer: Its Caspase1 fold change is 18.78 fold.

Question: For B5, which Caspase1 fold change is on record?
Answer: Its Caspase1 fold change is 16.76 fold.

Question: How did the Caspase1 fold change turn out when B6 was run?
Answer: Its Caspase1 fold change is 19.74 fold.

Question: Which Caspase1 fold change does the source give for B7 here?
Answer: The Caspase1 fold change was 16.5 fold.

Question: Which Caspase1 fold change does the source give for B8 here?
Answer: The Caspase1 fold change was 16.55 fold.

Question: Which Caspase1 fold change does the source give for B9 here?
Answer: The Caspase1 fold change was 19.1 fold.

Question: B10 was tested. Which Caspase1 fold change did it give?
Answer: Its Caspase1 fold change is 18.67 fold.

— US12091776B2, “Protease activity profiling via programmable phage display of comprehensive proteome-scale peptide libraries” (THE JOHNS HOPKINS UNIVERSITY, priority 2019, dated 2024)
